Laboratory results published in US20140087995A1 (published 2014).
Numbered stars: 1 amine (or outer) side, 2 acyl side, 3 side chain; on linkers, the order of the positions; unused ones are H or OH. Bridge positions count the residues as written; N and C are the ends. Side chains are listed from the residue outwards. Ends that are not written are not given here. * marks the point of attachment. C20 diacid = O=C(O)CCCCCCCCCCCCCCCCCCC(=O)*; γGlu = O=C(O)[C@H](CCC(=O)[*:2])N[*:1]; C14 diacid = O=C(O)CCCCCCCCCCCCC(=O)*; AEEA = NCCOCCOCC(=O)O

T1: human calcitonin receptor (human, UniProt P30988 25-474)
T1 construct: whole, on cells; Assay used cell membranes, not intact cells; also called hCTR; hCT
T1 sequence (looked up): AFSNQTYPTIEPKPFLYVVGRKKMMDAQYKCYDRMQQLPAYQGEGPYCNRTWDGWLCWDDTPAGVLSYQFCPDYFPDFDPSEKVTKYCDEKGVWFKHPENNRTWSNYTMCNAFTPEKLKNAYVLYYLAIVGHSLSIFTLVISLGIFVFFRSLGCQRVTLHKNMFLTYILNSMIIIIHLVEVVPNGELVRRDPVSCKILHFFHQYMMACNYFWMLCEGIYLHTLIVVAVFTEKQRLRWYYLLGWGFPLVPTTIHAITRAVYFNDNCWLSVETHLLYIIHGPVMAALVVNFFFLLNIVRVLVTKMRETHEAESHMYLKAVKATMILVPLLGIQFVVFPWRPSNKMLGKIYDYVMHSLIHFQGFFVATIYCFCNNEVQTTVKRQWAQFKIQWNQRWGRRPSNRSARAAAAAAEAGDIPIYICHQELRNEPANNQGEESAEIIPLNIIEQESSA

T2: human amylin receptor (amylin 3(a) receptor: human calcitonin receptor with RAMP-3) (human, UniProt P30988 25-474; O60896 24-148)
T2 construct: whole, on cells; Assay used cell membranes of the Amylin 3(a)/CRE-luc BHK cells, not intact cells; also called hAmylin-R; hAmylinR
T2 sequence (looked up) 1: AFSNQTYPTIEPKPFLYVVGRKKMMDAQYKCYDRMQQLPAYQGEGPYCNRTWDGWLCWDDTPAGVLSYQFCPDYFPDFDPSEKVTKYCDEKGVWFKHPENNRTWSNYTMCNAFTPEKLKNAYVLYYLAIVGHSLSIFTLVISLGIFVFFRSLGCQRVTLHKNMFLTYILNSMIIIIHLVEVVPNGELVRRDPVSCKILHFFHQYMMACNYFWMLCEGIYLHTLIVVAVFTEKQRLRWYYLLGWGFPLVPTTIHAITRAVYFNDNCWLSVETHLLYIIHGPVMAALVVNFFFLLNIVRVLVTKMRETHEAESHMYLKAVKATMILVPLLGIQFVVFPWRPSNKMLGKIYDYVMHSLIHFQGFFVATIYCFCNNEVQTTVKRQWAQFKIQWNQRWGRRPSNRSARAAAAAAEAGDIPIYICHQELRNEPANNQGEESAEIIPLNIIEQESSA
T2 sequence (looked up) 2: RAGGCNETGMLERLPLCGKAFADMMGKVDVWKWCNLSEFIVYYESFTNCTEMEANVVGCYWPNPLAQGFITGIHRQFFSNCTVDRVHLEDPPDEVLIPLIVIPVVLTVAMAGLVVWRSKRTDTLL


Tests used:
[1] = target: T1, human calcitonin receptor; test: ratio IC50 hCTR / IC50 hAmylin-R (reference: human amylin receptor), SPA competition assays
Summary of the method: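 Membranes (35 ng/μL final) + SPA beads, 50 mM Hepes pH 7.4 buffer with 1 mM CaCl2, 5 mM MgCl₂, 0.1% OA, 0.02% Tween20; 120 min, 25° C, shaking; centrifuged, counted; IC₅₀ by one-site binding competition.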

[2] = target: T2, human amylin receptor (amylin 3(a) …); test: SPA competition with 125I-rat amylin on membranes of BHK cells with human calcitonin receptor and RAMP-3 (Assay V)
Summary of the method: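 SPA beads + BHK amylin 3(a)/CRE-luc membranes, 35 ng/μL final; buffer 50 mM Hepes pH 7.4, 1 mM CaCl2, 5 mM MgCl₂, 0.1% OA, 0.02% Tween20. 120 min, 25° C, shaken; scintillation count. IC₅₀ by one-site binding competition fit, taken as receptor affinity.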

[3] = target: T1, human calcitonin receptor; test: SPA competition with 125I-calcitonin on membranes of BHK cells with human calcitonin receptor (Assay VII)
Summary of the method: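 BHK hCTR membranes 35 ng/μL + SPA beads 0.05 mg/well; buffer 50 mM Hepes pH 7.4, 1 mM CaCl2, 5 mM MgCl₂, 0.1% OA, 0.02% Tween20. 120 min, 25° C., shaking. Scintillation count; IC50 by one-site binding competition.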

Row | Binder | Ratio hCT/hAmylin binding [1] | IC50 [2] [nM] | IC50 [3] [nM]
1 | K([AEEA-γGlu-C20 diacid])CNTATCATQRLANFLRHSSPNFGAIPSSTNVGHNTY-NH2 (disulfide 2-7; N-terminus assumed; SMILES CC[C@H](C)[C@H](NC(=O)[C@H](C)NC(=O)CNC(=O)[C@H](Cc1ccccc1)NC(=O)[C@H](CC(N)=O)NC(=O)[C@@H]1CCCN1C(=O)[C@H](CO)NC(=O)[C@H](CO)NC(=O)[C@H](Cc1c[nH]cn1)NC(=O)[C@H](CCCNC(=N)N)NC(=O)[C@H](CC(C)C)NC(=O)[C@H](Cc1ccccc1)NC(=O)[C@H](CC(N)=O)NC(=O)[C@H](C)NC(=O)[C@H](CC(C)C)NC(=O)[C@H](CCCNC(=N)N)NC(=O)[C@H](CCC(N)=O)NC(=O)[C@@H](NC(=O)[C@H](C)NC(=O)[C@@H]1CSSC[C@H](NC(=O)[C@@H](N)CCCCNC(=O)COCCOCCNC(=O)CC[C@H](NC(=O)CCCCCCCCCCCCCCCCCCC(=O)O)C(=O)O)C(=O)N[C@@H](CC(N)=O)C(=O)N[C@@H]([C@@H](C)O)C(=O)N[C@@H](C)C(=O)N[C@@H]([C@@H](C)O)C(=O)N1)[C@@H](C)O)C(=O)N1CCC[C@H]1C(=O)N[C@@H](CO)C(=O)N[C@@H](CO)C(=O)N[C@H](C(=O)N[C@@H](CC(N)=O)C(=O)N[C@H](C(=O)NCC(=O)N[C@@H](Cc1c[nH]cn1)C(=O)N[C@@H](CC(N)=O)C(=O)N[C@H](C(=O)N[C@@H](Cc1ccc(O)cc1)C(N)=O)[C@@H](C)O)C(C)C)[C@@H](C)O, also called compound 76) | 80 | 0.215 | 17.2
2 | K([AEEA-γGlu-C20 diacid])CNTATCATQRLAHFLRHSSPNFGAIPSSTNVGRNTY-NH2 (disulfide 2-7; N-terminus assumed; SMILES CC[C@H](C)[C@H](NC(=O)[C@H](C)NC(=O)CNC(=O)[C@H](Cc1ccccc1)NC(=O)[C@H](CC(N)=O)NC(=O)[C@@H]1CCCN1C(=O)[C@H](CO)NC(=O)[C@H](CO)NC(=O)[C@H](Cc1c[nH]cn1)NC(=O)[C@H](CCCNC(=N)N)NC(=O)[C@H](CC(C)C)NC(=O)[C@H](Cc1ccccc1)NC(=O)[C@H](Cc1c[nH]cn1)NC(=O)[C@H](C)NC(=O)[C@H](CC(C)C)NC(=O)[C@H](CCCNC(=N)N)NC(=O)[C@H](CCC(N)=O)NC(=O)[C@@H](NC(=O)[C@H](C)NC(=O)[C@@H]1CSSC[C@H](NC(=O)[C@@H](N)CCCCNC(=O)COCCOCCNC(=O)CC[C@H](NC(=O)CCCCCCCCCCCCCCCCCCC(=O)O)C(=O)O)C(=O)N[C@@H](CC(N)=O)C(=O)N[C@@H]([C@@H](C)O)C(=O)N[C@@H](C)C(=O)N[C@@H]([C@@H](C)O)C(=O)N1)[C@@H](C)O)C(=O)N1CCC[C@H]1C(=O)N[C@@H](CO)C(=O)N[C@@H](CO)C(=O)N[C@H](C(=O)N[C@@H](CC(N)=O)C(=O)N[C@H](C(=O)NCC(=O)N[C@@H](CCCNC(=N)N)C(=O)N[C@@H](CC(N)=O)C(=O)N[C@H](C(=O)N[C@@H](Cc1ccc(O)cc1)C(N)=O)[C@@H](C)O)C(C)C)[C@@H](C)O, also called compound 84) | 120 | 0.743 | 88.9

Next, values leading:

Row | Ratio hCT/hAmylin binding [1] | IC50 [2] [nM] | IC50 [3] [nM] | Binder
3 | 91.4 | 0.666 | 60.9 | K([AEEA-γGlu-C20 diacid])CNTATCATQRLATFLRHSSPNFGAIPSSTPVGSNTY-NH2 (disulfide 2-7; N-terminus assumed; SMILES CC[C@H](C)[C@H](NC(=O)[C@H](C)NC(=O)CNC(=O)[C@H](Cc1ccccc1)NC(=O)[C@H](CC(N)=O)NC(=O)[C@@H]1CCCN1C(=O)[C@H](CO)NC(=O)[C@H](CO)NC(=O)[C@H](Cc1c[nH]cn1)NC(=O)[C@H](CCCNC(=N)N)NC(=O)[C@H](CC(C)C)NC(=O)[C@H](Cc1ccccc1)NC(=O)[C@@H](NC(=O)[C@H](C)NC(=O)[C@H](CC(C)C)NC(=O)[C@H](CCCNC(=N)N)NC(=O)[C@H](CCC(N)=O)NC(=O)[C@@H](NC(=O)[C@H](C)NC(=O)[C@@H]1CSSC[C@H](NC(=O)[C@@H](N)CCCCNC(=O)COCCOCCNC(=O)CC[C@H](NC(=O)CCCCCCCCCCCCCCCCCCC(=O)O)C(=O)O)C(=O)N[C@@H](CC(N)=O)C(=O)N[C@@H]([C@@H](C)O)C(=O)N[C@@H](C)C(=O)N[C@@H]([C@@H](C)O)C(=O)N1)[C@@H](C)O)[C@@H](C)O)C(=O)N1CCC[C@H]1C(=O)N[C@@H](CO)C(=O)N[C@@H](CO)C(=O)N[C@H](C(=O)N1CCC[C@H]1C(=O)N[C@H](C(=O)NCC(=O)N[C@@H](CO)C(=O)N[C@@H](CC(N)=O)C(=O)N[C@H](C(=O)N[C@@H](Cc1ccc(O)cc1)C(N)=O)[C@@H](C)O)C(C)C)[C@@H](C)O, also called compound 75)
4 | 23.5 | 1.04 | 24.3 | K([γGlu-C14 diacid])CNTATCATQRLANFLRHSSPNFGAIPSSTNVGHNTY-NH2 (disulfide 2-7; N-terminus assumed; SMILES CC[C@H](C)[C@H](NC(=O)[C@H](C)NC(=O)CNC(=O)[C@H](Cc1ccccc1)NC(=O)[C@H](CC(N)=O)NC(=O)[C@@H]1CCCN1C(=O)[C@H](CO)NC(=O)[C@H](CO)NC(=O)[C@H](Cc1c[nH]cn1)NC(=O)[C@H](CCCNC(=N)N)NC(=O)[C@H](CC(C)C)NC(=O)[C@H](Cc1ccccc1)NC(=O)[C@H](CC(N)=O)NC(=O)[C@H](C)NC(=O)[C@H](CC(C)C)NC(=O)[C@H](CCCNC(=N)N)NC(=O)[C@H](CCC(N)=O)NC(=O)[C@@H](NC(=O)[C@H](C)NC(=O)[C@@H]1CSSC[C@H](NC(=O)[C@@H](N)CCCCNC(=O)CC[C@H](NC(=O)CCCCCCCCCCCCC(=O)O)C(=O)O)C(=O)N[C@@H](CC(N)=O)C(=O)N[C@@H]([C@@H](C)O)C(=O)N[C@@H](C)C(=O)N[C@@H]([C@@H](C)O)C(=O)N1)[C@@H](C)O)C(=O)N1CCC[C@H]1C(=O)N[C@@H](CO)C(=O)N[C@@H](CO)C(=O)N[C@H](C(=O)N[C@@H](CC(N)=O)C(=O)N[C@H](C(=O)NCC(=O)N[C@@H](Cc1c[nH]cn1)C(=O)N[C@@H](CC(N)=O)C(=O)N[C@H](C(=O)N[C@@H](Cc1ccc(O)cc1)C(N)=O)[C@@H](C)O)C(C)C)[C@@H](C)O) [N^ε1-[(4S)-4-carboxy-4-(13-carboxytridecanoylamino)butanoyl]-[Arg17,Pro21,Pro27,His34]-h-amylin]
5 | 68.1 | 0.29 | 19.8 | K([AEEA-γGlu-C20 diacid])CNTATCATQRLAHFLRHSSPNFGAIPSSTNVGHNTY-NH2 (disulfide 2-7; N-terminus assumed; SMILES CC[C@H](C)[C@H](NC(=O)[C@H](C)NC(=O)CNC(=O)[C@H](Cc1ccccc1)NC(=O)[C@H](CC(N)=O)NC(=O)[C@@H]1CCCN1C(=O)[C@H](CO)NC(=O)[C@H](CO)NC(=O)[C@H](Cc1c[nH]cn1)NC(=O)[C@H](CCCNC(=N)N)NC(=O)[C@H](CC(C)C)NC(=O)[C@H](Cc1ccccc1)NC(=O)[C@H](Cc1c[nH]cn1)NC(=O)[C@H](C)NC(=O)[C@H](CC(C)C)NC(=O)[C@H](CCCNC(=N)N)NC(=O)[C@H](CCC(N)=O)NC(=O)[C@@H](NC(=O)[C@H](C)NC(=O)[C@@H]1CSSC[C@H](NC(=O)[C@@H](N)CCCCNC(=O)COCCOCCNC(=O)CC[C@H](NC(=O)CCCCCCCCCCCCCCCCCCC(=O)O)C(=O)O)C(=O)N[C@@H](CC(N)=O)C(=O)N[C@@H]([C@@H](C)O)C(=O)N[C@@H](C)C(=O)N[C@@H]([C@@H](C)O)C(=O)N1)[C@@H](C)O)C(=O)N1CCC[C@H]1C(=O)N[C@@H](CO)C(=O)N[C@@H](CO)C(=O)N[C@H](C(=O)N[C@@H](CC(N)=O)C(=O)N[C@H](C(=O)NCC(=O)N[C@@H](Cc1c[nH]cn1)C(=O)N[C@@H](CC(N)=O)C(=O)N[C@H](C(=O)N[C@@H](Cc1ccc(O)cc1)C(N)=O)[C@@H](C)O)C(C)C)[C@@H](C)O, also called compound 80)
